This passage reports binding results from paper PMC1182371.

This data set addresses KLF15-ZF-GST (human) (UniProt Q9UIH9). Nature of the data set: DNase I footprinting. Particulars: EMSA: 4 mM HEPES, 5 mM EGTA, 100 mM KCl, 0.25 mM ZnCl2, 0.02% NP40, 0.1 M DTT, 4% glycerol, 90-120 min on ice, pH not stated, footprinting: same buffer. Background: In EMSA bound probe runs differently from free probe, usually more slowly.

Sequence of KLF15-ZF-GST (human) (Q9UIH9 294-416): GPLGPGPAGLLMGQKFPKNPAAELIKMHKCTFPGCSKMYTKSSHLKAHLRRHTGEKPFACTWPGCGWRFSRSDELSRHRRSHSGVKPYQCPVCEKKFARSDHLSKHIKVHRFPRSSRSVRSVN

For the sequence “CGCCGGCGGCGCGAACCCGGGGATGCTTCTGAGGCCGGAGCTCAGCCACACGGGGCTCCGGCTGGACGACTCGTGGCTCCAACTCCCCCCCCAGGCCCTTATGAAGTGACCTCCCCTCCCTAAGCTCCCGGCTGAATCAGCACCTCGGAGATTGGGGGCGTTATTAATCATATTAATCCTCACTGCTGCAACGAGGGGCTTAATTGGCTTCCAGGTGGGGCCAAGGTGACTCCAGGTAGAAGGCTGTGGTCGGGGAGAAGGCGGGGCGTGCTGGGGACCCTGGGAAAGAGCAGAGGCCT (double strand) [bovine Rho -225 to +70]”, the binding entry is “binds”.
As for “GAAGTGACCTCCCCTCCCTAAGCTCCCGGCTGAATCAGCACCTCGGAGATTGGGGGCGTTATTAATCATATTAATCCTCACTGCTGCAACGAGGGGCTTAATTGGCTTCCAGGTGGGGCCAAGGTGACTCCAGGTAGAAGGCTGTGGTCGGGGAGAAGGCGGGGCGTGCTGGGGACCCTGGGAAAGAGCAGAGGCCTGCCCCCAACTCCCCTGTCCCCCTCTGGCATCTCAGCTGATGGCCCTGGCCTGGCATTGGGACCCCTAGCTCTAGGCCCACTTCCCTCT (double strand) [bovine Rho -315 to -31]”, the binding result is “binds”.
